Experimental data as given in article doi:10.1101/2020.07.09.174003 (bioRxiv, 2020).
Values belong to the molecule of their own block, whether it stands above or below them.

Experiments:
[1] = target: Deinococcus radiodurans phytochrome (DrBphP) photosensory module, biliverdin-bound, with C-terminal AviTag and HisTag (Deinococcus radiodurans); experiment: SEC
[2] = target: Rhodopseudomonas palustris BphP1 (RpBphP1), mammalian two-hybrid fusion (Rhodopseudomonas palustris); experiment: two-hybrid
[3] = target: DrBphP photosensory module, biliverdin-bound, yeast two-hybrid bait (Deinococcus radiodurans (entry strain …, UniProt Q9RZA4, biliverdin-bound)); experiment: two-hybrid
DrBphP photosensory module, biliverdin-bound, yeast two-hybrid bait (Deinococcus radiodurans, sequence (Q9RZA4 whole entry, looked up, tested part not stated): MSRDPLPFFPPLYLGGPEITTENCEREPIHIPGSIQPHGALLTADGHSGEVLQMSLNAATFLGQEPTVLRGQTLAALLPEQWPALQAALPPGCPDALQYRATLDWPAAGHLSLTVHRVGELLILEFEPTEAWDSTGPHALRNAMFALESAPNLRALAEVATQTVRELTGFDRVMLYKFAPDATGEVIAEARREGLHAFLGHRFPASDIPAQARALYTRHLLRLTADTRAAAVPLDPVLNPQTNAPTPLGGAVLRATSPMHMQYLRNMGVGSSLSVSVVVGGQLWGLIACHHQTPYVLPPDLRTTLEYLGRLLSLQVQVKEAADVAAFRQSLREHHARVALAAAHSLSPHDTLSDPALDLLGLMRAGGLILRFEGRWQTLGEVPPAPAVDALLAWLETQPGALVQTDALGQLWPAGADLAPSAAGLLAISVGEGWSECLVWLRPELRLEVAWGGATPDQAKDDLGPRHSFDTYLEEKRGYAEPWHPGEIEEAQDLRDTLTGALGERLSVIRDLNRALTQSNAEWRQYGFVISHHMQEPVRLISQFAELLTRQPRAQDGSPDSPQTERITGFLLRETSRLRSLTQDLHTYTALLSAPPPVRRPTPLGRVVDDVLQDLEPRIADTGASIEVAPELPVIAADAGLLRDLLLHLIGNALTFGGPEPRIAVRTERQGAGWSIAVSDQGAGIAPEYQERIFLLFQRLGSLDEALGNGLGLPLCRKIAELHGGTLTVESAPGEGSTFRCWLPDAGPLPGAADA

Molecule: Deinococcus radiodurans phytochrome (DrBphP) photosensory module, biliverdin-bound, with C-terminal AviTag and HisTag (domain or fragment)
stoichiometry N [1]: 2

Molecule: PpsR2, mammalian two-hybrid fusion (natural protein)
fold increase of luciferase expression, 775-nm light over dark [2]: 2.95 fold

Molecule: Q-PAS1, a truncated form of PpsR2, mammalian two-hybrid fusion (domain or fragment)
fold increase of luciferase expression, 775-nm light over dark [2]: 2.02 fold

Further lines, results first:

binding result [3]: binds
B1: LDB-7 nanobody, yeast two-hybrid prey (VHH)
VHH: EVQLQASGGGFVQPGGSLRLSCAASGSTSDFESMGWFRQAPGKEREFVSAISSWFTNPPYYADSVKGRFTISRDNSKNTVYLQMNSLRAEDTATYYCAHRSIWYHPTYWGQGTQVTVSS

binding result [3]: binds
B2: LDB-4 nanobody, yeast two-hybrid prey (VHH)
VHH: EVQLQASGGGFVQPGGSLRLSCAASGDTSYLYSMGWFRQAPGKEREFVSAISWWWNLTQYYADSVKGRFTISRDNSKNTVYLQMNSLRAEDTATYYCAWSIYFPPGNDYNGYHYWGQGTQVTVSS

binding result [3]: binds
B3: LDB-6 nanobody, yeast two-hybrid prey (VHH)
VHH: EVQLQASGGGFVQPGGSLRLSCAASGFFSNWSDMGWFRQAPGKEREFVSAISFWADGTEYYADSVKGRFTISRDNSKNTVYLQMNSLRAEDTATYYCAWYGPVNGFYMFDYWGQGTQVTVSS
